The values below come from article PMC10724065, “Evolution of a plant growth-regulatory protein interaction specificity” (Nature Plants, 2023).

The chains are these.
B1: Arabidopsis thaliana AtSLY1 (yeast bait fusion) [Arabidopsis thaliana] / A. thaliana RGA (yeast prey fusion) [Arabidopsis thaliana] (parent complex)
chain 1: MKRSTTDSDLAGDAHNETNKKMKSTEEEEIGFSNLDENLVYEVLKHVDAKTLAMSSCVSKIWHKTAQDERLWELICTRHWTNIGCGQNQLRSVVLALGGFRRLHSLYLWPLSKPNPRARFGKDELKLTLSLLSIRYYEKMSFTKRPLPESK
chain 2: MKRDHHQFQGRLSNHGTSSSSSSISKDKMMMVKKEEDGGGNMDDELLAVLGYKVRSSEMAEVALKLEQLETMMSNVQEDGLSHLATDTVHYNPSELYSWLDNMLSELNPPPLPASSNGLDPVLPSPEICGFPASDYDLKVIPGNAIYQFPAIDSSSSSNNQNKRLKSCSSPDSMVTSTSTGTQIGGVIGTTVTTTTTTTTAAGESTRSVILVDSQENGVRLVHALMACAEAIQQNNLTLAEALVKQIGCLAVSQAGAMRKVATYFAEALARRIYRLSPPQNQIDHCLSDTLQMHFYETCPYLKFAHFTANQAILEAFEGKKRVHVIDFSMNQGLQWPALMQALALREGGPPTFRLTGIGPPAPDNSDHLHEVGCKLAQLAEAIHVEFEYRGFVANSLADLDASMLELRPSDTEAVAVNSVFELHKLLGRPGGIEKVLGVVKQIKPVIFTVVEQESNHNGPVFLDRFTESLHYYSTLFDSLEGVPNSQDKVMSEVYLGKQICNLVACEGPDRVERHETLSQWGNRFGSSGLAPAHLGSNAFKQASMLLSVFNSGQGYRVEESNGCLMLGWHTRPLITTSAWKLSTAAY
B2: Arabidopsis thaliana AtSLY1 (yeast bait fusion) [Arabidopsis thaliana] / A. thaliana GAI (yeast prey fusion) [Arabidopsis thaliana] (parent complex)
chain 1: B1 chain 1
chain 2: MKRDHHHHHHQDKKTMMMNEEDDGNGMDELLAVLGYKVRSSEMADVAQKLEQLEVMMSNVQEDDLSQLATETVHYNPAELYTWLDSMLTDLNPPSSNAEYDLKAIPGDAILNQFAIDSASSSNQGGGGDTYTTNKRLKCSNGVVETTTATAESTRHVVLVDSQENGVRLVHALLACAEAVQKENLTVAEALVKQIGFLAVSQIGAMRKVATYFAEALARRIYRLSPSQSPIDHSLSDTLQMHFYETCPYLKFAHFTANQAILEAFQGKKRVHVIDFSMSQGLQWPALMQALALRPGGPPVFRLTGIGPPAPDNFDYLHEVGCKLAHLAEAIHVEFEYRGFVANTLADLDASMLELRPSEIESVAVNSVFELHKLLGRPGAIDKVLGVVNQIKPEIFTVVEQESNHNSPIFLDRFTESLHYYSTLFDSLEGVPSGQDKVMSEVYLGKQICNVVACDGPDRVERHETLSQWRNRFGSAGFAAAHIGSNAFKQASMLLALFNGGEGYRVEESDGCLMLGWHTRPLIATSAWKLSTN

Variants of B1 are the subject of one test. Kind of test: yeast 2-hybrid; read off a plot.
In the case of chain 1 K126T, the response was ~0.6 β-galactosidase units.

Consider chain 1 K126N, for which the response is ~3.9 β-galactosidase units. On the same count and under the same terms, in the case of chain 1 P114L it was ~1.5 β-galactosidase units. Regarding chain 1 P114S, the response was ~3.6 β-galactosidase units. Still for that read-out and setting: for chain 1 E138K the value was ~3.7 β-galactosidase units; for chain 1 H104Y, ~55 β-galactosidase units. On the same count and under the same terms, in the case of chain 1 T128A it was ~24 β-galactosidase units. On the same count and under the same terms, in the case of chain 1 T128S it was ~1.3 β-galactosidase units.

Variants of B2 are the subject of the next test. Kind of test: pull-down (IP: His, immunoblot); parent: 1.
On to chain 1 H104Y, for which the ratio to parent amounted to 3.05. Same read-out and setting: in the case of chain 1 T128A it was 2.36; in that of chain 1 G84D, 1.41.

A further test covers variants of B2. Kind of test: yeast 2-hybrid; parent: 0.3; read off a plot.
Consider chain 1 H104Y, for which the response was ~110 β-galactosidase units. The same measure, in the same setting: in the case of chain 1 H104F it was ~100 β-galactosidase units.

Variants of B2 are the subject of the next test. Briefly: yeast 2-hybrid; parent: 0.3; read off a plot. This is another data set of the same source.
In the case of chain 1 H104Y, the response was ~120 β-galactosidase units. The same measure, in the same setting: for chain 1 K126E the value was ~19 β-galactosidase units; for chain 1 K126T, ~24 β-galactosidase units; for chain 1 K126N, ~51 β-galactosidase units. Turning to chain 1 T128A, the response is ~86 β-galactosidase units. On the same count and under the same terms, for chain 1 T128S the value was ~44 β-galactosidase units.

In the case of chain 1 P114S, the response is ~41 β-galactosidase units. Take chain 1 P114L: the response is ~37 β-galactosidase units. Still for that read-out and setting: for chain 1 E138K the value was ~15 β-galactosidase units.

The variants in a further test derive from B2. Kind of test: yeast 2-hybrid; parent: 0.35; read off a plot.
As for chain 1 H104Y, the response is ~99 β-galactosidase units.

chain 1 T128A, chain 1 E138K: the response is ~110 β-galactosidase units.

Consider chain 1 T128A, for which the response was ~77 β-galactosidase units. Consider chain 1 H104Y, chain 1 E138K, for which the response was ~160 β-galactosidase units. Take chain 1 P114L: the response was ~25 β-galactosidase units.

In the case of chain 1 P114L, chain 1 E138K, the response is ~77 β-galactosidase units.

Consider chain 1 E138K, for which the response is ~17 β-galactosidase units.

Variants of B2 are the subject of a further test. Kind of test: pull-down (IP: His, immunoblot); without GST-GID1C, without GA3 (GAI in A Form); parent: 1. In general terms: Immunoblotting shows a protein as a band on a membrane.
As for chain 1 H104Y, the ratio to parent is 5.65. Still for that read-out and setting: in the case of chain 1 T128A it was 2.27.

As for chain 1 P114L, the ratio to parent stood at 1.89. On the same count and under the same terms, in the case of chain 1 E138K it was 1.86.

In another test the parent is B2. Kind of test: pull-down (IP: His, immunoblot); with GST-GID1C, with GA3 (GAI in A + A' Forms); parent: 2.41.
Consider chain 1 H104Y, for which the response is 11.8 relative anti-MBP band intensity (SLY1 without GST-GID1C and GA3 = 1.00). Turning to chain 1 T128A, the response is 9.37 relative anti-MBP band intensity (SLY1 without GST-GID1C and GA3 = 1.00).

With chain 1 P114L, the response is 7.38 relative anti-MBP band intensity (SLY1 without GST-GID1C and GA3 = 1.00).

chain 1 E138K: the response is 3.88 relative anti-MBP band intensity (SLY1 without GST-GID1C and GA3 = 1.00).

The next test covers variants of B2. Briefly: yeast 2-hybrid; parent: 0.38; read off a plot.
As to chain 1 K126R, the response is ~0.26 β-galactosidase units.

The variants in the next test derive from B2. Briefly: yeast 2-hybrid; parent: 0.35; read off a plot. The source holds these as a separate data set.
As for chain 1 P114S, the response is ~55 β-galactosidase units.

On to chain 1 P114A, for which the response was ~89 β-galactosidase units. On the same count and under the same terms, in the case of chain 1 P114T it was ~34 β-galactosidase units; in that of chain 1 P114H, ~77 β-galactosidase units. Still for that read-out and setting: for chain 1 P114R the value was ~94 β-galactosidase units; for chain 1 P114L, ~63 β-galactosidase units.
